Data from US20020037853A1.
No end group written: not given here.

What was measured:
[1] = target: cell surface receptors for collagen on human dermal fibroblasts; assay: attachment of fibroblasts to collagen-coated dishes, peptide in the medium at 35 × 10^-6 M; competitor collagen
[2] = target: cell surface receptors for collagen on human dermal fibroblasts; assay: cell-binding activity relative to the inventive peptide of Examples 1 and 2
[3] = target: cell surface receptors for collagen on human dermal fibroblasts; assay: cell-binding activity relative to the SEQ ID NO:1 peptide
[4] = target: cell surface receptors for collagen on human dermal fibroblasts; assay: about 100,000 human fetal dermal fibroblasts on coated glass coverslips, 15 min, attached cells counted; uncoated control 7.01
[5] = target: cell surface receptors for collagen on human dermal fibroblasts; assay: attachment of fibroblasts to collagen-coated dishes, peptide in the medium at 36 × 10^-6 M; competitor collagen
[6] = target: cell surface receptors for collagen on human dermal fibroblasts; assay: fibroblast attachment to coated coverslips, 15 min
[7] = target: cell surface receptors for collagen on human dermal fibroblasts; assay: attachment of fibroblasts to collagen-coated dishes, peptide in the medium at 7.2 × 10^-6 M; competitor collagen
[8] = target: cell surface receptors for collagen on human dermal fibroblasts; assay: fibroblast attachment to coated coverslips, 15 min; reference collagen
[9] = target: cell surface receptors for collagen on human dermal fibroblasts; assay: various other similar cell attachment studies on glass or polystyrene
[10] = target: cell surface receptors for collagen on human dermal fibroblasts; assay: attachment of fibroblasts to collagen-coated dishes, polyproline in the medium at 1.7 × 10^-6 M; competitor collagen
[11] = target: cell surface receptors for collagen on human dermal fibroblasts; assay: biological (cell-binding) activity relative to P-15; assay not described there

“Dynorphin 1-13 (from UniProt P01213 207-219) (peptide)” gave a % Inhibition of Cell Attachment [1] of 19% and a % of Maximal Cell Attachment [1] of 81%.

Work on FGIAGF (SEQ ID NO:5) yielded a Relative Cell-Binding Activity (% relative to the SEQ ID NO:1 peptide) [2] of 87.

GPQGIAGQR (SEQ ID NO:2) was tested, and the Relative Cell-Binding Activity (% relative to the SEQ ID NO:1 peptide) [2] was 100.

“Gln-Gly-Ile-Ala-Gly (SEQ ID NO:8) (peptide)” showed a cell-binding activity relative to the SEQ ID NO:1 peptide [3] of 42%.

In the case of “Gly-Ile-Ala-Gly-Gln (SEQ ID NO:6) (peptide)”, the Relative Cell-Binding Activity (% relative to the SEQ ID NO:1 peptide) [2] is reported as 70.

For “Inventive peptide Gly-Thr-Pro-Gly-Pro-Gln-Gly-Ile-Ala-Gly-Gln-Arg-Gly-Val-Val (SEQ ID NO:1)”, the Concentration of Cells (relative binding of cells after 15 minutes) [4] was 11.1, the % Inhibition of Cell Attachment [5] was 88% and the % of Maximal Cell Attachment [5] was 12%. For the same substance, the increase in cell binding over the control (no collagen or peptide) [6] was 60%, the % Inhibition of Cell Attachment [7] was 85% and the % of Maximal Cell Attachment [7] was 15%. For the same substance, the increase in cell binding over collagen-coated dishes [8] was 40% and the potency in binding cells relative to collagen (fold over collagen) [9] was 2.

For Polyproline (peptide), the % Inhibition of Cell Attachment [10] was 10% and the % of Maximal Cell Attachment [10] was 90%.

Work on QGAIAQ (SEQ ID NO:7) yielded a Relative Cell-Binding Activity (% relative to the SEQ ID NO:1 peptide) [2] of 70.

Work on QGIAGQ (SEQ ID NO:3) yielded a Relative Cell-Binding Activity (% relative to the SEQ ID NO:1 peptide) [2] of 120.

With QGIAGQR (SEQ ID NO:4) the Relative Cell-Binding Activity (% relative to the SEQ ID NO:1 peptide) [2] was 60.

Substance “Rat tail tendon collagen (rat tail type I collagen) (from UniProt P02454 152-1207; P02466 86-1125)” has a Concentration of Cells (relative binding of cells after 15 minutes) [4] of 8.59.

Substance dipeptide -Ile-Ala- has a biological activity relative to P-15 [11] of 60%.

With “human preangiotensinogen 1-14 (from UniProt P01019 25-38) (peptide)” the % Inhibition of Cell Attachment [1] was 12% and the % of Maximal Cell Attachment [1] was 88%.
